# Data: the DeepSol protein solubility set
# Test: soluble on expression in E. coli; label from the status in PepcDB or PDB records
row,Sequence,soluble on expression in E. coli
1,AGGLKYDLDLNLSHYKSVLKSMANPDYLYEYGALRTYVGGEIGEFWVYQTAGIFQNQAEVDEWNTAHGYKDQNGNWQPLQPVAKPGDIRFIDQNGDGMLDTNDRVKVGSGTPKVSLGFNINLTYKDFDLVANFYGDFGAKRYNYTKYQLERMDHVFNYGKNALNAWTPENPDTDIPRAVSGDPNKNSRTSTRFVENGDYLRLNNLQIGYNLPVKYCKKMGLSNLRIYVGATRLFTITNYKGYDPSTGSSVGQMGYDYAAIPLSRDFMMGLKFGF,not soluble
2,MSQIKNYMEEVVFSLMKDVLSDINVCSCEKCRMDIAAIALNNLPPKYIVTDKGELYSKVDSLKQQFEVDVISALAKAAVIVKRNPRHE,not soluble
3,METYAVFGNPIAHSKSPFIHQQFAQQLNIEHPYGRVLAPINDFINTLNAFFSAGGKGANVTVPFKEEAFARADELTERAALAGAVNTLMRLEDGRLLGDNTDGVGLLSDLERLSFIRPGLRILLIGAGGASRGVLLPLLSLDCAVTITNRTVSRAEELAKLFAHTGSIQALSMDELEGHEFDLIINATSSGISGDIPAIPSSLIHPGIYCYDMFYQKGKTPFLAWCEQRGSKRNADGLGMLVAQAAHAFLLWHGVLPDVEPVIKQLQEELSALEHHHHHH,soluble
4,STSTSGLTARISQTLFTSNSFVEEVASILQHWDTGLEASKRRIQDAKEKNSTVLDLQQLELSNEIFNELWPSIREIRNLKYLNLFLNRLTELPSDFGALSTLETLNLACNPLQSVPDSFSDLAMLRELDLGFTSTLCTVPEIFEKMTQLKVLYAGNNRLEKLPESVISLQCLEELHLYGNALNALPENIGNLKSLRLLNVGRNNLSSLPNSIGSLSSLEVLYLYENDLSSLPRSMKDLSKLRVLGLDGNPSLSSLPEHIKEPNAKAVAAYYAEME,soluble
5,MAYTIGVDFGTLSGRAVLVHVQTGEELAAAVKEYRHAVIDTVLPKTGQKLPRDWALQHPADYLEVLETTIPSLLEQTGVDPKDIIGIGIDFTACTILPIDSSGQPLCMLPEYEEEPHSYVKLWKHHAAQKHADRLNQIAEEEGEAFLQRYGGKISSEWMIPKVMQIAEEAPHIYEAADRIIEAADWIVYQLCGSLKRSNCTAGYKAMWSEKAGYPSDDFFEKLNPSMKTITKDKLSGSIHSVGEKAGSLTEKMAKLTGLLPGTAVAVANVDAHVSVPAVGITEPGKMLMIMGTSTCHVLLGEEVHIVPGMCGVVDNGILPGYAGYEAGQSCVGDHFDWFVKTCVPPAYQEEAKEKNIGVHELLSEKANHQAPGESGLLALDWWNGNRSTLVDADLTGMLLGMTLLTKPEEIYRALVEATAYGTRMIIETFKESGVPIEELFAAGGIAEKNPFVMQIYADVTNMDIKISGSPQAPALGSAIFGALAAGKEKGGYDDIKKAAANMGKLKDITYTPNAENAAVYEKLYAEYKELVHYFGKENHVMKRLKTIKNLQFSSAAKK,soluble
6,MAHHHHHHMVSAPQIRSIPCGSGDFSVMKRSLIARWQSGVHTPHGVVYRGAKMKNWPEQRIPENFKFTEEQRFRTKAIPRDVGTIPRNFVLGVLYRHQPCEVGGLWEHCTNDPEIVLDSKRHLREVLKQAREEGFVTFERDAISNEWLCFLTRERYEEVQRIVTAKSEAVDAHSGLRGAAATETSTYAEKFREMNVEAKEAHARRLEEEVANTTRYLRRFQQREIDYLPYTDLNGKVNFMWWYETRDVQQRADEVLTDSSSSKALAGEEEHKAGSQLEATTASTS,soluble
7,MAHHHHHHMSSGRRDIIFFGSIAVSILGHEVHDEAVAPQLERQNARIKLHTTARAPYAKTEEVFGLDATSPLYEIHSADFKASPTSSLTPQRGAPHPRHHRQKAAFLPVMLKLAQDAAVEEVPSIEDQDGALLQLDSPTNNVDPAPSYASASVRIEVDMSRSGGDATPVGTKEVFLPSLNYLAIRDMCTVVRIPVWSNTIQRSETGDVDVAELDRRSPQPQRAGDDNSSSSSGVLGGVRDRNSRGDAVSGVALSVYAMVRVISLAEKVRLALEADDAVRCLLGLPDPVPGVSLALTQRGDAPYGAMPLTELYKHHRQFFGYYSNTIIKHSNVVTQRLAEAPRQREADASFPHRWNTLTVVDLRPALLGEDAFAPLLVTLAYCANLRALYADGNHLGDLTCARLSALFRRHRYLARVSLSKNTIHEAGGEHLLRLVRNNLRITSMPCQGNYFSDALRSRIEEVARRNASVIAQDPLNIFSASYDYLTDLSSLPNSLQQQGLRTWAMLSAAPVGDVDVMVRNFTTSTQRTLGDSPVVAMQRAKTALRARESFSLIPPAALAPFLNEIMRTVSVGVSRVLPDPLVRSLFSDMETVVAREQEQVEAQRRDELAGGSRDASLLPPEVCDAVGGAYTPPVDSETMYARSFVRIVVAALRGVALGTPWAEIAKVLEGIGRVHRDLGVMPEDYWLAVHIFMTSLRISCGAECYDADSASSFLGLLALAVRTAVGTDTVLQ,not soluble
8,MSVDKSPVYEVKAVPVEKVLANDYNPNVVAPPEMKLLELSIWEDGFTMPCVCYYNKEEDNYILVDGYHRYTVLKTSKRIYKRENGLLPIVVIDKDLSNRMSSTIRHNRARGMHNIELMCNIVAELDRAGMSDQWIMKNIGMDRDELLRLKQISGLADLFANREFSIPDEVAPTETERKTL,not soluble
9,MSLSADKLYIDKELSWLSFNERVLQEAADKTVPLIERIRFLGIFSNNLDEFYKVRFADVKRQILINRERGGNDISKHLLSRMQSKALKLNQDFDNLYNELILEMARRRIFLVNETQLDEIQLKWVKKYFHKEVLPHVTPIMLRDDIDVMQFLKDEYAYIAVEMRSGDEFKYALIEIPTDQLPRFVMLPEQKGKRRKTIILLDNIIRLCLDEIFRGFYDYDTLNGYAMKMTRDAEYDLRHEVEYSLLEQMSEGLSQRLTALPVRFVYEREMPEAMLKFLCYKLKISHYDSLIPGGRYHNFKDFISFPNVGRDYLENKPLPPMTCADFEGYANAFDAIRAQDILLHYPYHSFEHMTELVRQASFDPKVVSIKINIYRVAKDSKLMNSLVDAVHNGKRVVVVVELQARFDEEANIEWSRILTDAGVHVIFGVPGMKIHAKLLLITRKEGDEFVRYAHIGTGNFHERTARIYTDFALLTANQELAAEVRAVFGYIENPFRPVKFNHLIVSPRNSRTQIYRLLDSEIANAKAGKKAAITLKVNNLVDKGLINKLYGASAAGVKIRMIIRGMCSLVPGVEGVSDNIEIISIIDRFLEHPRVLVVHNDGNPQVFISSADWMERNIDHRIEVMAPIRDERLKQRIIDILNIQFIDTVKARRIDKEMSNQYVERGNRRKVRSQIAIYDYLKNVEKQTRKAKGQQETNDNSSQEGHHHHHH,soluble
10,MKAQMESWQDIQEYVKNNKKKHKRRMANDAMKNVNELGFPFTYFEDTYQFAIKTSIGMVDYFGTTGTWVVRKNQDRGRGLKKLKKYLEHPVPTKEIKKTKGNQSWMKNNR,not soluble
11,MKHMPRKMYSCAFETTTKVEDCRVWAYGYMNIEDHSEYKIGNSLDEFMAWVLKVQADLYFHNLKFAGAFIINWLERNGFKWSADGLPNTYNTIISRMGQWYMIDICLGYKGKRKIHTVIYDSLKKLPFPVKKIAKDFKLTVLKGDIDYHKERPVGYKITPEEYAYIKNDIQIIAEALLIQFKQGLDRMTAGSDSLKGFKDIITTKKFKKVFPTLSLGLDKEVRYAYRGGFTWLNDRFKEKEIGEGMVFDVNSLYPAQMYSRLLPYGEPIVFEGKYVWDEDYPLHIQHIRCEFELKEGYIPTIQIKRSRFYKGNEYLKSSGGEIADLWLSNVDLELMKEHYDLYNVEYISGLKFKATTGLFKDFIDKWTYIKTTSEGAIKQLAKLMLNSLYGKFASNPDVTGKVPYLKENGALGFRLGEEETKDPVYTPMGVFITAWARYTTITAAQACYDRIIYCDTDSIHLTGTEIPDVIKDIVDPKKLGYWAHESTFKRAKYLRQKTYIQDIYMKEVDGKLVEGSPDDYTDIKFSVKCAGMTDKIKKEVTFENFKVGFSRKMKPKPVQVPGGVVLVDDTFTIK,soluble
12,MKQLNFKKIFLNLLWPLLPFTAQAQENNTLYSILSKDNILVSSPSVQNQEEDIVTQMPNRHHKYDKRVHRYRRAWEALIPTHTKLQYAGGMGLLSWGIGWDYGKRGQWETDLLLGFIPRYSSKHFKMTMTLKQNYIPWSIWLGKDFSLEPLTTGIYFNTVFSDDFWTSEPERYPRGYYGFSTRIRTHIFLGQRVRFDVPEKYRKFSKSITAFYEISTCDLYVVSAFNNSYLKPDDYLRLSFGLKFQIF,not soluble
13,MSTFIRGPICGTDNCPSRLWRIIDGRRTCQYGHVMEGDVEFNDDEDDLNGLGAGVITRRLNLTTNATGSFQSSQLTNSQLLQQQQRQSHKKFKKLIGHEAKLLFLKSFQFILKRQIRWLITEMRFPKEFEHVAKIIWLKILKTINDQPQEELKLQLHMTSTISILYLASTHLSLPVYTCDYIKWICTAKMPYFQASEILPKSWRIQLPNYYVSILEGSISPFNGQLYNKIALTCGMIHFKEFFNSEISCQGLLLKLVMQCALPPEFYFYTKQVIEFEETDIRNLTLWERTDERHTGRVSNHAELRVLSYFMLTINWMLSFDRDRQYPLKWILSLTESLTQRTTTSESIGRNIVKVVYPDKPTSSDYFQWSEEETLEFLKWMEKQFLPTQTKSLHNENGSMEMTIDQKIARRKLYKIFPLDREANHDGEFNDSTHQLTFIEDLQERYAKQTPFFESNKIRDSLNYQEANPPARKEAIGRLLTHIASQLLVDFAISKEQLKDCISRIKNACLHRMN,not soluble
14,ASQPLIQDPVLIEYINHLGNSLVKNAQGVNYAFEFFLINNNELNAFAFFGGHVGIHSGLITTADTESELASVIAHEISHVTQRHLARRLESQSQTQGLTMAAMLSSVLITLVNPTVGIAALSASMAVTQQASINYTRGNEKEADRVGIALLASSNYDPQGAASFFSKMSTKYRYASKPPAMLLTHPLPESRIADARQRALNYPARPLPPSLGFELTKARLKSRYQGEAKSNISFFKLQLEKKRYAIKAAAQYGLALSYFENKQTSEALQLLEMLEKNDKDNLFYVDALTDVYIANNQANKAIKMLERLNLFMPNNQVVSLNYANALLSVKEYDLAAQILQDFLLVNPGNFIAYDILTTLYRTQEKTGLMHMSKAEVYALLGAYPKAVDELQTSYAFLDEQPLMQK,not soluble
15,MGSSHHHHHHGGTGENLYFQGGSGAKKHLKRLYAPKDWMLSKLTGVFAPRPRPGPHKLRECLPLLVIIRNRLKYALNAREGEMILRQGLVHVDNHPRRDGKYPAGFMDVVEIPKTGDRFRLMYDVKGRFALVNLSEAEAQIKLMKVVNLYTATGRVPVAVTHDGHRIRYPDPHTSIGDTIVYNVKEKKCVDLIKNRQGKAVIVTGGANRGRIGEIVKVECHPGAFNIAHLKDASGAEFATRAANIFVIGKDLNNLQVTVPKQQGLRMNVIQEREERLIAAEARKNAPARGARRARK,soluble
16,MGSDKIHHHHHHLANTKELGPLRILISRLLKKAGELCFTASDLTISKEQAKLITRGAPRFPYHTPHNMLFWLDESQYVDKCIIQHGKYESASTNLVQQFVKEGQTVLDIGGNIGYYTVMFSKIVGRSGKVITFEPTAHYRSILEKNVQENQINNVLIRPEGLSDKAEKLTISIGSSTATLHAPEGQQIDSYEAIQLARLDDLVEQLDITKLDFIKIDVDGHEPSVLRGAQQTIKKFKPLILLEVSHLHYLEGNVFAWDFYDYLSSLNYYIYDEHEMCRITRRSDFLIRCANFDRSCNILLSPTLLNEH,not soluble
17,AHHHHHHGSLLPDWKIRKEILIEPFSEESLQPAGYDLRVGREAFVKGKLIDVEKEGKVVIPPREYALILTLERIKLPDDVMGDMKIRSSLAREGVIGSFAWVDPGWDGNLTLMLYNASNEPVELRYGERFVQIAFIRLEGPARNPYRGNYQGSTRLAFSKRKKL,soluble
18,MIKQDVICYEKEDVVKRNNINITGGGEKTVLLAHGFGCDQNMWRFMLPELEKQFTVIVFDYVGSGQSDLESFSTKRYSSLEGYAKDVEEILVALDLVNVSIIGHSVSSIIAGIASTHVGDRISDITMICPSPCFMNFPPDYVGGFERDDLEELINLMDKNYIGWANYLAPLVMGASHSSELIGELSGSFCTTDPIVAKTFAKATFFSDYRSLLEDISTPALIFQSAKDSLASPEVGQYMAENIPNSQLELIQAEGHCLHMTDAGLITPLLIHFIQNNQTRA,soluble
